Binding signal data for one molecule are collected here from patent publication US20200123576, “Platform for developing stable mammalian cell lines” (Icosagen Cell Factory OÜ, published 2020).

The target of this data set is BPV1 E2 protein (Bovine papillomavirus 1, UniProt P03122 P03122:1-410). The data set can be described thus: cell_activity. Conditions: chain copies: 2.
BPV1 E2 protein, sequence (P03122 whole entry, one chain of several): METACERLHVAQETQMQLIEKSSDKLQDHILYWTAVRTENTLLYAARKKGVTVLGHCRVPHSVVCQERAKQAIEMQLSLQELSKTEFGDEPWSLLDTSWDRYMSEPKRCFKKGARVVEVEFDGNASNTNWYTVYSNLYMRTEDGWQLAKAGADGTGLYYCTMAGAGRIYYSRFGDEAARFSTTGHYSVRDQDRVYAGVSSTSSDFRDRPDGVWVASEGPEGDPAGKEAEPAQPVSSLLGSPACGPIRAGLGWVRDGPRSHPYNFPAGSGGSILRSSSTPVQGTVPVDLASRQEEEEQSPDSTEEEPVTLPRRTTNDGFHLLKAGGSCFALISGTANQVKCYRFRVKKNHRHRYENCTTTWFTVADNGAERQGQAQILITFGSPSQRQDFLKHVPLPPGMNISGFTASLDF

B1: BPV1 E2 binding sites (E2BS) (dsDNA)
DNA 1: ACCGTTGCCGGTCGGATCTGTACCGTTGCCGGTCGGATCTGTACCGTTGCCGGTCGGATCTGTACCGTTGCCGGTCGGATCTGTACCGTTGCCGGTCGGATCTGTACCGTTGCCGGTCGGATCTGTACCGTTGCCGGTCGGATCTGTACCGTTGCCGGTCGGATCTGTACCGTTGCCGGTC
DNA 2: GACCGGCAACGGTACAGATCCGACCGGCAACGGTACAGATCCGACCGGCAACGGTACAGATCCGACCGGCAACGGTACAGATCCGACCGGCAACGGTACAGATCCGACCGGCAACGGTACAGATCCGACCGGCAACGGTACAGATCCGACCGGCAACGGTACAGATCCGACCGGCAACGGT
Molecule B1 registered a binding signal of approximately 3.5 fold.
